Values joined by “and” are separate entries in the source; they are usually repeats but may differ in a detail not shown here. Identical values can stand only once.
B1: Tryptophan synthase alpha chain, P0A877 (parent)
chain: MERYESLFAQLKERKEGAFVPFVTLGDPGIEQSLKIIDTLIEAGADALELGIPFSDPLADGPTIQNATLRAFAAGVTPAQCFEMLALIRQKHPTIPIGLLMYANLVFNKGIDEFYAQCEKVGVDSVLVADVPVEESAPFRQAALRHNVAPIFICPPNADDDLLRQIASYGRGYTYLLSRAGVTGAENRAALPLNHLVAKLKEYNAAPPLQGFGISAPDQVKAAIDAGAAGAISGSAIVKIIEQHINEPEKMLAALKVFVQPMKAATRS

Variants of: B1
Settings: Escherichia coli (strain K12), pH 7.8, Urea, CD, Potassium phosphate 10 mM, structure 1WQ5, whole UniProt chain shown

| Variant | ddG of mutation (higher = less stable) (25 °C) | denaturant m value (25 °C) | denaturant midpoint (higher = more stable) (25 °C) | unfolding free energy (25 °C) | denaturant m value (4 °C) | denaturant midpoint (higher = more stable) (4 °C) |
| --- | --- | --- | --- | --- | --- | --- |
| G211D | 0.3 kcal/mol and 0.8 kcal/mol | 2 kcal/mol/M and 1.2 kcal/mol/M | 2.7 M and 3.61 M | 5.4 kcal/mol and 4.2 kcal/mol | – | – |
| G211R | – | – | – | – | 1.6 kcal/mol/M and 2.2 kcal/mol/M | 1.4 M and 3.28 M |
| G211S | -0.2 kcal/mol | 2.4 kcal/mol/M and 1.3 kcal/mol/M | 2.46 M and 3.97 M | 5.9 kcal/mol and 5.2 kcal/mol | – | – |
| G211W | 1.6 kcal/mol and 1.1 kcal/mol | 1.8 kcal/mol/M and 1.1 kcal/mol/M | 2.25 M and 3.62 M | 4.1 kcal/mol and 3.9 kcal/mol | – | – |
| G211E | – | 3 kcal/mol/M and 1.5 kcal/mol/M | 2.73 M and 3.72 M | 8.1 kcal/mol and 5.5 kcal/mol | – | – |
| G211V | – | 1.9 kcal/mol/M and 1.6 kcal/mol/M | 2.78 M and 4.3 M | 5.4 kcal/mol and 6.9 kcal/mol | – | – |
